Among the data in article PMC12751049 are stoichiometry N and stoichiometry N (CypD per C1qBP trimer) values, retold here.

For assay [1], the target named is Complement 1q binding protein (C1qBP), recombinant His-tagged, residues 75-282 (human). Description: dynamic and static light scattering (DLS/SLS); C1qBP at 0.8 mg/ml, 20 mM HEPES pH 7.4, 37°C, with 2.5 mM CaCl2; trimer to dimer of trimers.
Assay [2] shares this target. The experiment in a line: SEC-MALS; Superdex 200 10/300 GL, 20 mM Na2HPO4, 20 mM NaCl, pH 6.5; proteins at 2-4 mg/ml alone or CypD:C1qBP mixture at 2:1 molar ratio; eluted complex checked by SDS-PAGE.

With “Complement 1q binding protein (C1qBP), recombinant His-tagged, residues 75-282 (natural protein)”, the stoichiometry N in assay [1] turned out to be 6; in assay [2] it was 3.
As to “Cyclophilin D (CypD), recombinant, residues 44-207 (enzyme)”, the stoichiometry N (CypD per C1qBP trimer) in assay [2] turned out to be 1.

A word on the stoichiometry N: it is the number of molecules, sites or subunits per partner or assembly.
